Experimental data as given in article PMC4250934.

Columns and labels:
Test in all cases: AUC
[1] = biological target: SODA_(BSn5), C-terminal SODA domain of SOD_(BSn5) (Bacillus subtilis BSn5)
[2] = biological target: SODA_(NG2215), NTD-deleted form of SOD_(NG2215) (SODA functional domain) (Geobacillus thermodenitrificans NG80-2)
[3] = biological target: SOD_(BSn5), Fe/Mn superoxide dismutase from Bacillus subtilis BSn5 (Bacillus subtilis BSn5)
[4] = biological target: SOD_(NG2215), Fe/Mn superoxide dismutase (cambialistic SOD) from Geobacillus thermodenitrificans NG80-2 (Geobacillus thermodenitrificans NG80-2)

For “SODA_(BSn5), C-terminal SODA domain of SOD_(BSn5) (domain or fragment)”, the stoichiometry N [1] was 2.
“SODA_(NG2215), NTD-deleted form of SOD_(NG2215) (SODA functional domain) (domain or fragment)” gave a stoichiometry N [2] of 4.
For “SOD_(BSn5), Fe/Mn superoxide dismutase from Bacillus subtilis BSn5 (enzyme)”, the stoichiometry N [3] was 2.
For “SOD_(NG2215), Fe/Mn superoxide dismutase (cambialistic SOD) from Geobacillus thermodenitrificans NG80-2 (enzyme)”, the stoichiometry N [4] was 4.
